Results reported in patent publication US20230122503A1 (Janssen / Centocor, published 2023).
Positions count from the first letter of the chain named.

B1: PSMB1156 conjugated to maleimide-PEG4-vcPAB-MMAF (antibody, human IgG1, lambda, V domains shown)
VH: EVQLVESGGGVVQPGRSLRLSCAASGFTFTSYGMHWVRQAPGKGLEWVAVISYDGSNKYYADSVKGRFTISRDNSKNTLYLQMNSLRAEDTAVYYCAREHYDSSGYYHGYYGMDVWGQGTTVTVSS
VL: not shown
modifications: maleimide-PEG4-vcPAB-MMAF and N-ethyl maleimide on reduced cysteines (sites not given)
B2: PSMB1154 conjugated to maleimide-PEG4-vcPAB-MMAF (antibody, human IgG1, lambda, V domains shown)
VH: EVQLVESGGGEVQPGRSLRLTCAVSGFTLSRYGMHWVRQAPGKGLEWAALISYDGSNRYYADSVKGRFTISRDNSKNTVFLQMNSLRAEDTAVYYCARERESSGWFEGYFDYWGQGTTVTVSS
VL: QLVLTQPPSVSVAPGQTARITCGGNNIGSKSVHWYQQKPGQAPVLVVYDNSDRPSGIPERFSGSNSGNTATLTISRVEVGDEADYYCQVWDSSSDHVVFGGGTKLTVLG
modifications: maleimide-PEG4-vcPAB-MMAF and N-ethyl maleimide on reduced cysteines (sites not given)
B3: PSMB1157 conjugated to maleimide-PEG4-vcPAB-MMAF (antibody, human IgG1, lambda, V domains shown)
VH: EVQLVESGGGVVQPGRSLRLSCAASVRTFSGYGMHWVRQVPGKGLEWVAVISYDGSNRYYADSVKGRFTISRDNSKNTLYLQMNSLRTEDTAVYYCARDGNWGSLDLYFDLWGRGTLVTVSS
VL: QSVLTQPPSVSGAPGQRVTISCTGSSSNIGADYDVHWYQQLPGTAPKLLIYVNNNRPSGVPDRFSGSRSGTSASLAITGLQADDEADYYCQSYDNTLSGVVFGGGTKLTVLG
modifications: maleimide-PEG4-vcPAB-MMAF and N-ethyl maleimide on reduced cysteines (sites not given)
B4: PSMB1183 conjugated to maleimide-PEG4-vcPAB-MMAF (antibody, human IgG1, lambda, V domains shown)
VH: QVQLQESGPGLVKSSETLSLTCTVSGGSISSYYWNWIRQPAGKGLEWIGRIYSSGNTDYNPSLKSRVTMSVDTSKNQFSLKLISVTAADTAVYYCARGRGANVGLFDYWGQGTLVTVSS
VL: QSALTQPPSVSGAPGQRVTISCTGSNSNIGANYDVHWYQHLPGTAPKLLIYGNINRPLGVPDRFSGSRSGTSASLAITGLQAEDEADYYCQSYDFSLSGSVFGVGTKLTVLG
modifications: maleimide-PEG4-vcPAB-MMAF and N-ethyl maleimide on reduced cysteines (sites not given)
B5: PSMB1156 conjugated to MC-GGFG-DX8951 (antibody, human IgG1, lambda, V domains shown)
VH: B1 VH
VL: not shown
modifications: MC-GGFG-DX8951 on reduced cysteines, DAR 8.0
B6: PSMB1154 conjugated to MC-GGFG-DX8951 (antibody, human IgG1, lambda, V domains shown)
VH: B2 VH
VL: B2 VL
modifications: MC-GGFG-DX8951 on reduced cysteines, DAR 8.0
B7: PSMB1157 conjugated to MC-GGFG-DX8951 (antibody, human IgG1, lambda, V domains shown)
VH: B3 VH
VL: B3 VL
modifications: MC-GGFG-DX8951 on reduced cysteines, DAR 8.0
B8: PSMB1183 conjugated to MC-GGFG-DX8951 (antibody, human IgG1, lambda, V domains shown)
VH: B4 VH
VL: B4 VL
modifications: MC-GGFG-DX8951 on reduced cysteines, DAR 8.0
B9: PSMB1156 (antibody, human IgG1, lambda, V domains shown)
VH: B1 VH
VL: not shown
notes: huIgG1, lambda light chain
B10: PSMB1154 (antibody, human IgG1, lambda, V domains shown)
VH: B2 VH
VL: B2 VL
notes: huIgG1, lambda light chain
B11: PSMB1157 (antibody, human IgG1, lambda, V domains shown)
VH: B3 VH
VL: B3 VL
notes: huIgG1, lambda light chain
B12: PSMB1098 (antibody, human IgG1, kappa, V domains shown)
VH: QVQLVESGGGVVQPGRSLRLSCAASGFTFSTYGMHWVRQAPGKGLEWVAFISYDGSNKYYADSVKGRFTISRDNSKHTLYLQMNSLRAEDTAVYYCAGRDNLRFLEWFMDVWGQGTTVTVSS
VL: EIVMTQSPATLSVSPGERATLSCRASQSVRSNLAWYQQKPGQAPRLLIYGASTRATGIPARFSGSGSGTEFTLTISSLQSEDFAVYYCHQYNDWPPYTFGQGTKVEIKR
notes: huIgG1, kappa light chain
B13: PSMB1195 (antibody, human IgG1, kappa, V domains shown)
VH: EVQLVESGGGLVKPGGSLRLSCAASGFTFSSYSLNWVRQAPGKGLEWVSSISSSSSYISYADAVKGRFTISRDNAKNSLYLQMNSLRAEDTAVYYCARDRGFLEDYYYYYGMDVWGQGTTVTVSS
VL: DIVMTQSPSSVSASVGDRVTITCRASQGISNWLAWYQQKPGKAPKLLIYVASSLQSGVPSRFSGSGSGTDFSLTISSLQPEDFATYYCQQAYSFPLTFGGGTKVEIKR
notes: huIgG1, kappa light chain
B14: PSMB1183 (antibody, human IgG1, lambda, V domains shown)
VH: B4 VH
VL: B4 VL
notes: huIgG1, lambda light chain
B15: PSMB1088 (antibody, human IgG1, kappa, V domains shown)
VH: EVQLVESGGGVVQPGRSLRLSCAASGFTFSSYDMHWVRQAPGKGLEWVTVISFDGSNKYYVDSVKGRFTISRDNSKNTLYLQMNSLRAEDTAVYYCARTYYDILTGYSHYSYGMDVWGQGTTVTVSS
VL: EIVMTQSPSSLSASVGDRVTITCRASQGISNYLAWYQQKPGKVPKLLIYATSTLQSGVPSRFSGSGSGTDFILTISSLQPEDVANYYCQKYNSAPFTFGPGTKVEIKR
notes: huIgG1, kappa light chain
B16: PSMB1113 (antibody, human IgG1, kappa, V domains shown)
VH: EVQLVESGGGLVKPGGSLRLSCAASGFTLSIYSMNWVRQAPGKGLEWVSSISSSSSYIFYADSVKGRFTISRDNAKNSLFLQMNSLRAEDTAVYYCARSSYGADYWGQGTLVTVSS
VL: B15 VL with G28D, S30T, Y32F, A50T, T51A, I72T, N85T, F96L, P100G, V104L
notes: huIgG1, kappa light chain

biological target: T1, human prostate-specific membrane antigen (PSMA), full length, on cells (human, UniProt Q04609 1-750); assay: cell-based or functional assay
T1 sequence (Q04609 whole entry): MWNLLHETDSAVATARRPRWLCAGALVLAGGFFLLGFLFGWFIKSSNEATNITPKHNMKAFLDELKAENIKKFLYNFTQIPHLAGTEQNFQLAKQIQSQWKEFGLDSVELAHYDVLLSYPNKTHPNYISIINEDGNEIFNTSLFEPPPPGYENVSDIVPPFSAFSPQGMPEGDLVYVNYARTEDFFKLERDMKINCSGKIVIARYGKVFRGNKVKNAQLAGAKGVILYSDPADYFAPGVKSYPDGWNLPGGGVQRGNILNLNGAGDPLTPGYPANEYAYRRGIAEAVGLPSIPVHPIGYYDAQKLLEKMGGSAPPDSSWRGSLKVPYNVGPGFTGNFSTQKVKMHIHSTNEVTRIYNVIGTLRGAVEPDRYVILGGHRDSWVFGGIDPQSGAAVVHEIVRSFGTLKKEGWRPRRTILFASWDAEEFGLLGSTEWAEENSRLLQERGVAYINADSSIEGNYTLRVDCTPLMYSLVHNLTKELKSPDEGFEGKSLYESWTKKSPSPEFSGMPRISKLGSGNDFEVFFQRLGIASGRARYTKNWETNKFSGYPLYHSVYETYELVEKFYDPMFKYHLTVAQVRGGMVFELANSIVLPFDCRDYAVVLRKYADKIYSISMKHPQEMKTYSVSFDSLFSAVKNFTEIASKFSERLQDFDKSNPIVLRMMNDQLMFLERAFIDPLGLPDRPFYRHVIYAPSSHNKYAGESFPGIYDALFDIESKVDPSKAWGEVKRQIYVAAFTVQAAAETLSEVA

Row | Binder | C4-2B IC50 (cytotoxicity, vcMMAF ADC, DAR 2.9, 72 h) | C4-2B IC50 (cytotoxicity, vcMMAF ADC, DAR 4, 72 h) | C4-2B IC50 (cytotoxicity, vcMMAF ADC, DAR 3.6, 72 h)
1 | B1 | 0.04 nM |  | 
2 | B2 |  | 0.03 nM | 
3 | B3 |  |  | 0.03 nM
4 | B4 |  |  | 0.03 nM

biological target: T1, human prostate-specific membrane …; assay: cell-based or functional assay; remark: another data set of the same source

Row | Binder | IC50 (cytotoxicity on 22RV1 cells, DX8951 ADC, DAR 8, 6 d)
5 | B5 | 1.4 nM
6 | B6 | 0.8 nM
7 | B7 | 2.2 nM
8 | B8 | 0.7 nM

biological target: T1, human prostate-specific membrane …; assay: flow cytometry on C4-2B cells (high PSMA), anti-human AF647 detection, four-parameter fit
Description: The affinity of the purified antibodies was also determined on C4-2B, a cell line with high PSMA levels. Briefly, C4-2B cells were washed once with 1×PBS and incubated with 3 mls/T150 flask of cell dissociation buffer until detached, the cells were collected and strained through a […] sieve. Cells were resuspended at 0.5×10e6 cells/mL in staining buffer (BD #554657) and seeded at 25,000 cells/well in V bottom plate (Corning 3894). To each well, 50 μl of Ab 4-fold serially diluted in staining buffer from 120 nM (60 nM final) were added at 2× final concentration. Control mAbs were added at 2 μg/ml, 1 μg/ml final (controls were: —secondary only and isotype control). All primary antibodies were incubated with the cells for 60 min at 4° C. After the primary incubation, 100 μl staining buffer were added to all wells and the cells were washed by pelleting by centrifugation at 300×g 5 min and buffer removed by flicking the plate. Then cells were similarly washed again with 200 μl staining buffer. […] After 30 minutes incubation at 4° C., the cells were washed as described above with 150 ul staining buffer, followed by a final wash with 200 ul running buffer (Running buffer is staining buffer plus 1 mM EDTA and 0.1% pluronic acid). Cells were resuspended in 30 ul/well running buffer with 1:1000 Sytox Blue viability stain (Invitrogen #S34857) and stored at 4° C. until read on the flow cytometer. Plates were read on an IntelliCyt IQue 3 instrument. Briefly, cells were gated on live cells, then populations were gated on singlets. Antibody binding was assessed by AF647 fluorescence at 647 nm. Data was analyzed in GeneData Screener with signal/background AF647 fluorescence plotted against antibody concentration.

Row | Binder | EC50
9 | B9 | 0.633 nM
10 | B10 | 0.306 nM
11 | B11 | 0.381 nM
12 | B12 | 2.46 nM
13 | B13 | 13.8 nM
14 | B14 | 0.156 nM
15 | B15 | 12.4 nM
16 | B16 | 2.52 nM

biological target: T2, PSMW39, human PSMA ECD (Lys44-Ala750), N-6xHis (human, UniProt Q04609 44-750); assay: SPR (Biacore 8K), antibody captured on goat anti-Fc C1 chip, PSMA ECD as analyte, 1:1 Langmuir fit
T2 construct: Made in Expi-CHO cells; also called PSMW39.002; recombinant human ECD
T2 sequence (Q04609 other isoform, or with tags, fused parts or gaps): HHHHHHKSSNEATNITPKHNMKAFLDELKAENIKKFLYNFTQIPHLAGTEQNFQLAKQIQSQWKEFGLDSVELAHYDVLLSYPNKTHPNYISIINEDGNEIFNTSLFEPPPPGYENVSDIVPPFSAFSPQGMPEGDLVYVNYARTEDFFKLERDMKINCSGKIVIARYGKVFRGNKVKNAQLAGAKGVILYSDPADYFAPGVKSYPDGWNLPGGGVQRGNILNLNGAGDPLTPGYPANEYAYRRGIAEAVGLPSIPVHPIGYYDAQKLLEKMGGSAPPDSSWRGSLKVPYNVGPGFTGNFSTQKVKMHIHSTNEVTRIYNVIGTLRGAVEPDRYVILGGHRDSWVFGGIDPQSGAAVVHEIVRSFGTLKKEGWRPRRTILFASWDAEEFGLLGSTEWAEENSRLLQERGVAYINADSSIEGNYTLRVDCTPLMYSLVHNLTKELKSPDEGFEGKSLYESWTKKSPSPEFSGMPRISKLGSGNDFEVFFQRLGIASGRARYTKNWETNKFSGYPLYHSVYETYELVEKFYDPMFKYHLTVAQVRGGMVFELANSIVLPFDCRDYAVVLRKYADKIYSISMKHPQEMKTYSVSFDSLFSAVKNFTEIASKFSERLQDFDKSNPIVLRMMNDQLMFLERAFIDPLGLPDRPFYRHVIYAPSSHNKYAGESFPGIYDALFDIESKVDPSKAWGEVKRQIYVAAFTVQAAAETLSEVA
Description: The binding affinity of purified anti-PSMA antibodies to the recombinant human ECD was determined by surface plasmon resonance (SPR) using a BIACORE 8K instrument. The antibodies were captured on a goat anti-Fc antibody-modified C1 chip and titrated with 3-fold serial dilutions of PSMA antigen spanning concentrations of 1 nM to 11.1 nM. The association and dissociation were monitored for 3 and 15 minutes, respectively, using a flow rate of 50 μL/min. Raw binding data was referenced by subtracting the analyte binding signals from blanks and analyzed using a 1:1 Langmuir binding model using the Biacore Insight evaluation software to obtain the kinetics which were used to calculate the binding affinity.

Row | Binder | Kd | koff | kon
17 | B9 | 0.548 nM | 0.000168 s⁻¹ | 306000 M⁻¹ s⁻¹
18 | B10 | 1.09 nM | 0.00019 s⁻¹ | 174000 M⁻¹ s⁻¹
19 | B11 | 1.42 nM | 0.000274 s⁻¹ | 194000 M⁻¹ s⁻¹
20 | B12 | 0.54 nM | 2.85e-05 s⁻¹ | 52700 M⁻¹ s⁻¹
21 | B13 | 9.45 nM | 0.000101 s⁻¹ | 10700 M⁻¹ s⁻¹
22 | B14 | 0.928 nM | 0.000401 s⁻¹ | 432000 M⁻¹ s⁻¹
23 | B15 | 0.97 nM | 2.85e-05 s⁻¹ | 29400 M⁻¹ s⁻¹
24 | B16 | 1.16 nM | 6.65e-05 s⁻¹ | 57300 M⁻¹ s⁻¹
